Data published in US20220340684A1 (AGENCY FOR SCIENCE TECHNOLOGY AND RESEARCH, published 2022).

B1: Recombinant human TRIM21 PRYSPRY domain (His-tagged, expressed in E. coli BL21 (DE3)) (receptor)
chain: VHITLDPDTANPWLILSEDRRQVRLGDTQQSIPGNEERFDSYPMVLGAQHFHSGKHYWEVDVTGKEAWDLGVCRDSVRRKGHFLLSSKSGFWTIWLWNKQKYEAGTYPQTPLHLQVPPCQVGIFLDYEAGMVSFYNITDHGSLIYSFSECAFTGPLRPFFSPGFNDGGKNTAPLTLCPLNIGSQGSTDY
modifications: biotinylated when used as bait for biopanning and in the ELISAs (sites not given)
notes: Purified on Ni-NTA and by gel filtration; Analyte in SPR; biotinylated form used in biopanning and ELISA; also called PRYSPRY domain of TRIM21; bait protein; not shown: N-terminal His-tag of the pQE-2 vector

Assays:
[1] = molecular target: B1; assay: SPR as in Example 1.10, TRIM21 PRYSPRY domain;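 further: antibodies amine-coupled to a GLC chip on a ProteON XPR36, TRIM21 flowed at five concentrations in PBS with 0.05% Tween-20, kinetics fitted to a Langmuir 1:1 model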
[2] = molecular target: B1; assay: ELISA, 0.125 µg/ml biotinylated PRYSPRY domain
[3] = molecular target: T1, Wildtype IgG1 Fc (reference in the SPR table of Example 4) (human, UniProt P0DOX5 230-449 = IgG part, limits assumed); assay: SPR as in Example 1.10, TRIM21 PRYSPRY domain;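 further: antibodies amine-coupled to a GLC chip on a ProteON XPR36, TRIM21 flowed at five concentrations in PBS with 0.05% Tween-20, kinetics fitted to a Langmuir 1:1 model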
T1 construct: also called wildtype Fc

Binder	Kd [1]	koff [1]	kon [1]	binding result [2]	Kd [3]	koff [3]	kon [3]
Fc region SN 1 of FIG. 13 (IgG1 256P/433S/434H/440G) (other) PCPAPELLGGPSVFLFPPKPKDTLMISRPPEVTCVVVDVSHEDPEVKFNWYVDGVEVHNAKTKPREEQYNSTYRVVSVLTVLHQDWLNGKEYKCKVSNKALPAPIEKTISKAKGQPREPQVYTLPPSRDELTKNQVSLTCLVKGFYPSDIAVEWESNGQPENNYKTTPPVLDSDGSFFLYSKLTVDKSRWQQGNVFSCSVMHEALSHHYTQKGLSLSPGK	0.055 nM	0.000388 s⁻¹	7.05e+06 M⁻¹ s⁻¹				
Fc region SN 2 of FIG. 13 (IgG1 256P/433S/434H) (other) PCPAPELLGGPSVFLFPPKPKDTLMISRPPEVTCVVVDVSHEDPEVKFNWYVDGVEVHNAKTKPREEQYNSTYRVVSVLTVLHQDWLNGKEYKCKVSNKALPAPIEKTISKAKGQPREPQVYTLPPSRDELTKNQVSLTCLVKGFYPSDIAVEWESNGQPENNYKTTPPVLDSDGSFFLYSKLTVDKSRWQQGNVFSCSVMHEALSHHYTQKSLSLSPGK	0.156 nM	0.000727 s⁻¹	4.66e+06 M⁻¹ s⁻¹				
Fc region SN 9 of FIG. 13 (IgG1 256P/433V/434H) (other) PCPAPELLGGPSVFLFPPKPKDTLMISRPPEVTCVVVDVSHEDPEVKFNWYVDGVEVHNAKTKPREEQYNSTYRVVSVLTVLHQDWLNGKEYKCKVSNKALPAPIEKTISKAKGQPREPQVYTLPPSRDELTKNQVSLTCLVKGFYPSDIAVEWESNGQPENNYKTTPPVLDSDGSFFLYSKLTVDKSRWQQGNVFSCSVMHEALVHHYTQKSLSLSPGK	0.0957 nM	0.000481 s⁻¹	5.03e+06 M⁻¹ s⁻¹				
Fc region SN 10 of FIG. 13 (IgG1 256P/433V/434H/440R) (other) PCPAPELLGGPSVFLFPPKPKDTLMISRPPEVTCVVVDVSHEDPEVKFNWYVDGVEVHNAKTKPREEQYNSTYRVVSVLTVLHQDWLNGKEYKCKVSNKALPAPIEKTISKAKGQPREPQVYTLPPSRDELTKNQVSLTCLVKGFYPSDIAVEWESNGQPENNYKTTPPVLDSDGSFFLYSKLTVDKSRWQQGNVFSCSVMHEALVHHYTQKRLSLSPGK	0.892 nM	0.00046 s⁻¹	515000 M⁻¹ s⁻¹				
Fc region SN 32 of FIG. 13 (IgG1 256P/433T/434R) (other) PCPAPELLGGPSVFLFPPKPKDTLMISRPPEVTCVVVDVSHEDPEVKFNWYVDGVEVHNAKTKPREEQYNSTYRVVSVLTVLHQDWLNGKEYKCKVSNKALPAPIEKTISKAKGQPREPQVYTLPPSRDELTKNQVSLTCLVKGFYPSDIAVEWESNGQPENNYKTTPPVLDSDGSFFLYSKLTVDKSRWQQGNVFSCSVMHEALTRHYTQKSLSLSPGK	0.498 nM	0.00053 s⁻¹	1.06e+06 M⁻¹ s⁻¹				
Fc region SN 46 of FIG. 13 (IgG1 256P/433V/434R) (other) PCPAPELLGGPSVFLFPPKPKDTLMISRPPEVTCVVVDVSHEDPEVKFNWYVDGVEVHNAKTKPREEQYNSTYRVVSVLTVLHQDWLNGKEYKCKVSNKALPAPIEKTISKAKGQPREPQVYTLPPSRDELTKNQVSLTCLVKGFYPSDIAVEWESNGQPENNYKTTPPVLDSDGSFFLYSKLTVDKSRWQQGNVFSCSVMHEALVRHYTQKSLSLSPGK	0.169 nM	0.000124 s⁻¹	730000 M⁻¹ s⁻¹				
Fc region SN 92 of FIG. 13 (IgG1 256A/436F/440M) (other) PCPAPELLGGPSVFLFPPKPKDTLMISRAPEVTCVVVDVSHEDPEVKFNWYVDGVEVHNAKTKPREEQYNSTYRVVSVLTVLHQDWLNGKEYKCKVSNKALPAPIEKTISKAKGQPREPQVYTLPPSRDELTKNQVSLTCLVKGFYPSDIAVEWESNGQPENNYKTTPPVLDSDGSFFLYSKLTVDKSRWQQGNVFSCSVMHEALHNHFTQKMLSLSPGK	3.68 nM	0.0145 s⁻¹	3.94e+06 M⁻¹ s⁻¹				
modified Fc (other, also called PN04-90 Fc) Fc polypeptide (CH2-CH3): PCPAPELLGGPSVFLFPPKPKDTLMISRPPEVTCVVVDVSHEDPEVKFNWYVDGVEVHNAKTKPREEQYNSTYRVVSVLTVLHQDWLNGKEYKCKVSNKALPAPIEKTISKAKGQPREPQVYTLPPSRDELTKNQVSLTCLVKGFYPSDIAVEWESNGQPENNYKTTPPVLDSDGSFFLYSKLTVDKSRWQQGNVFSCSVMHEALTRHFTQKILSLSPGK				binds			
B1					126 nM	0.0812 s⁻¹	647000 M⁻¹ s⁻¹
